According to the domain aggregation screens of Martell et al. (2025):

Experiment: soluble fraction after stress (log2 fold change); higher = more stays soluble; pooled small domains, quantitative proteomics
Details: stress: 75 degC
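Note: 20 min heating vs room temperature control held 20 min.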

Sequence	soluble fraction (log2)
HMNPFPDNTAEVLSQFKNIIVPELNTGQLSKLLRARYLVDTVGINKVEGLPFTAQELEEKIESLINSF	-0.428
HMNPGQIIRKLRQDQGMTLAVLAKYANLDPGNLSRIERDDLNISFNLLEKLSLILNVSPIVFFH	-0.119
HMNPLSELSFEERRELFLEAAVRLFEEKGYKNTSVEDIAGELGFTKKVFYYYWKNKREIVQEIHDRGMA	-0.594
HMNPNFIEVSHGRLRVNVPLSAYEGTTYHIKPEEAEKLKRTLASRYPWLTPNALKVFIEEAEQAMRERIQ	-0.403
HMNPSKEFNMSDLLKAKMVGDVSAAKRREKAGALLHIGYGNAKTFLKKLNHFSISREEWDKVIAAMEEF	-1.26
HMNPSVSSDERILLQKALGILSAEQKQIVMLHAVAGIKHREIAKLLDMPIATVLSKYSRAVNKLRHAMEA	-0.456
HMNPTTDFFKLEGIDATRILVFDQVGRQVAQFSQPAQQMDIQALPAGVYALRIENADGQVYSARIVK	-0.231
HMNPVVATTIILDGEIIKDNLAEANLSEEWLLEELKRQNFNDVKEVFYAEWLDGKQLFAYPYTK	-0.537
HMNQDIIEIGNNIQKIRKKNGISQSVLAEKIDVAGNSIYRMEGATTVMGVDKLINIADALNTSPMDILPAR	0.0791
HMNQDMINFDKLSVRLKNVLIENNLKTVDSLLNYPAEEFEYLTNLGEKTLQELLTYRNELAASNNIQ	-0.51
HMNQGKLIEMLQEMKEIAHSQNNYLTKNEIANYLGDTVLSKEQLQAVYHYLGENHIEVEGYVYIP	≥ 1.04
HMNQIATSTQAIITTLSFLNTSSIFKLPVGDTASRPTGVSPGTLRFNSQEDSAEIYKADDGTGSAGWTEVA	-0.296
HMNQIDEATAATITTLNFLNTNSEFKIPVGDTATRPGTPAIGMMRFNSENDKAEIYVADFDGDGNPGWINL	-0.0556
HMNQILDFTREVKNLPEQDKIKIVEALWSIIYSNKDADIYETNLMRRLAGLLYIDNKTMGDIKEKIKQNL	-0.906
HMNQNHFLDSVVEFAKDEASRAFFQKAVKKLGEGLVEEAMGEVKMREADGSVNSRAPYFIALLENWMENR	-0.0208
HMNQNIYVPKLEGLQIEEASSILKSKGLNIEITDSIFRKDAVPGAIIEQTPKPNSRVKTGRNIYVSIYSK	0.385
HMNQSEMIGSRLKEERLQQKLTLKQLSEKVGLSIGYLSQVERGYGTLSLSALKKLSSALGLEMSTFFD	-2.43
HMNQTGQYENAAKRFNQLITIDSSDKRAYLQLGISNYNLGNKEKADSLFNIIRNSKDKLLIEELDNFLT	-0.102
HMNQYALTDREKNVLGLLVDGLSYKMIADKENISFHTVNAHVRKIYEKLHVHSLAEAVSKALKENL	-2.07

Sequence	soluble fraction (log2)
HMNQYRKLDGDVQNQIIYILSEYPKLPATIVYQRLLDTNTIVKKDVSLSTVNRFVQKYKDSKGIT	-1.19
HMNREDYIKAIFKIAEREGEASNQRIADSLGVSRASASEMVKKLIQEGFVVAEGRQLSLSAEGERIA	-0.185
HMNREEKKALTRRQIIDVATRLFRQHGIHNTDLKTIATEAGVSVVTFYKYFDSKEALIGTIAAEQ	-0.804
HMNRNHVFDSNGPDLRLRGTAQQLFEKYLQLGRDATSGGDRVMAEGYFQHAEHYFRILNAMNQAAMQH	-1.15
HMNRPYETLFTGLTTDEASAIVGKLEEYGAADYKIEGDTIKVPAAQEPDLKAKLLLDGYPKS	0.231
HMNRTEYMAALRRALSVLPEEERASALRYYEEYFDDAGPENEEKVIADLGAPEKVAGQILADYRE	0.0934
HMNSDQMKEHLDNLVDMAKKNDNTLIDTEIVNYFVGKPDIELNTDMMTKIFDYLDEHHVAVLS	0.146
HMNSEFPFNGGRIVDNVPANRLQIFFDEKPDADVRTRLKQNGFRWAPNSGAWQSYRHGYTLDWARREFNA	-0.136
HMNSEPKTKLQEIAQERGLAAPVYETTHTGPDHDRIFSASVTVGDVVAAGEARSRKGAESEAAIAAIKALG	0.195
HMNSFGWESLIDKEGIADTDLHPSGWVRIDDRRIFVVSEGDFIDKGSGVTVLSVDGNRVVVRELI	-1.38
HMNSHLEEGRHGLQIGDPGIVRARIESDPEGETDMPVVVIDGRNISWNEFGRMVATYTGFQFKLEM	-0.629
HMNSHQNELDNALTEAHTASRRLLEGTDEYLDLSSQPAYIRRLQHLLAQKYNLGSLSSGVEPNRHIRLLQ	-0.265
HMNSIDIENELVKIIEKNGQPMSFDDLVFKLDSLYSTRYKFAKGYIRTIILNSNRIASIGKTSTYSLYKWN	-3.12
HMNSKKETLLSYLYNHSTWSSRNDLSNFLNVSTRQVTNYINEINKNETIVLSSNKGYKINPKFIGKN	-1.61
HMNSKMTYSDLIGNIEQGNVSSVELASDGKSATVTLTDNSQKQVNIPSLDSFVTYVQDHIKAGTLSVEE	0.344
HMNSKSDDELLSKTTSLLIHAAKIDENYTDKEKEIIKKTLIQLGVKESKADQIMLTAEINEE	≥ 1.04
HMNSKYILLQVSDIPKTSLVLERQFGVTEYSVQDEHTLRIYDTSLDMAAVNKALVVQDIAVISSQL	-1.69
HMNSLFPLSLKYLREQANITQAELAQKLDVTQQAVGRWERGQTSPDYETLKRLSVLFNVSVDYLLGV	-1.1
HMNSNIIKTINDELSIRKGKYGPYIMYKTKKMKRPKFKSIGDNTPDEFLADKGSISEIILWIN	-0.527
